From patent publication US20240076386A1 (Pfizer, published 2024)

Columns and labels:
Assay in all cases: cell-based or functional assay
[1] = biological target: T1, human E-selectin, cell-surface expressed (human, UniProt P16581 22-610)
T1 sequence: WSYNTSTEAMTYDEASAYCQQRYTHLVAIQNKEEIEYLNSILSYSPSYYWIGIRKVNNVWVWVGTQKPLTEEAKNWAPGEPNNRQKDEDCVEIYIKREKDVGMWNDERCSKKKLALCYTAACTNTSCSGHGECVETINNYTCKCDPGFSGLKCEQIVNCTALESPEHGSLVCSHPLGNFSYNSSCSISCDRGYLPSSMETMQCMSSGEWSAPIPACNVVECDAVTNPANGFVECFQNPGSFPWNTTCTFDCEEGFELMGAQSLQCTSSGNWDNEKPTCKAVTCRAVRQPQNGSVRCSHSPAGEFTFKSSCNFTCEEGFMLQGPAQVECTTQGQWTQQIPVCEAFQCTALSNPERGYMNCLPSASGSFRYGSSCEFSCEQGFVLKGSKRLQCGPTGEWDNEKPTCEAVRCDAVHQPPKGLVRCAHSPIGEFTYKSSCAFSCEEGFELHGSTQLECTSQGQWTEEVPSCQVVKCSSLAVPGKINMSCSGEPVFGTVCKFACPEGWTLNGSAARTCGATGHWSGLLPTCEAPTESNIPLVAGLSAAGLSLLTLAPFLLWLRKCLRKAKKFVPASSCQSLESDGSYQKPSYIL

[2] = biological target: T2, cynomolgus monkey E-selectin, cell-surface expressed (cynomolgus monkey, UniProt P16581 22-610 (human entry))
T2 chain: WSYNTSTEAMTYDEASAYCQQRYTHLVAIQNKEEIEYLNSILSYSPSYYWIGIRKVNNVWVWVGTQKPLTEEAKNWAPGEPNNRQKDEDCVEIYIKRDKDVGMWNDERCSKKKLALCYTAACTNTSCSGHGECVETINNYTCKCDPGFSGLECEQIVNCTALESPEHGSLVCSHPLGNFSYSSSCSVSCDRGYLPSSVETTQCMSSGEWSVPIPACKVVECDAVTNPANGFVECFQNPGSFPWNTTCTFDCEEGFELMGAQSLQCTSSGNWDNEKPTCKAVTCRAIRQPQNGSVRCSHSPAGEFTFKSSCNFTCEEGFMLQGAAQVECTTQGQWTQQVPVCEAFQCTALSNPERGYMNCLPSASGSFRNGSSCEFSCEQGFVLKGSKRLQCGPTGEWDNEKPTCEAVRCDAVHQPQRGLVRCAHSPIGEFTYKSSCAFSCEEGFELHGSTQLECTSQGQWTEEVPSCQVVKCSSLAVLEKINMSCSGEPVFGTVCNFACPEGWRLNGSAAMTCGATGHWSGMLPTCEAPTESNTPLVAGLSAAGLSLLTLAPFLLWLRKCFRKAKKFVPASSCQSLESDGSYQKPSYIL

[3] = biological target: T3, recombinant histidine-tagged human E-selectin (Sino Biologicals; 13025-H08H) (human, UniProt P16581 22-556)
T3 sequence (looked up): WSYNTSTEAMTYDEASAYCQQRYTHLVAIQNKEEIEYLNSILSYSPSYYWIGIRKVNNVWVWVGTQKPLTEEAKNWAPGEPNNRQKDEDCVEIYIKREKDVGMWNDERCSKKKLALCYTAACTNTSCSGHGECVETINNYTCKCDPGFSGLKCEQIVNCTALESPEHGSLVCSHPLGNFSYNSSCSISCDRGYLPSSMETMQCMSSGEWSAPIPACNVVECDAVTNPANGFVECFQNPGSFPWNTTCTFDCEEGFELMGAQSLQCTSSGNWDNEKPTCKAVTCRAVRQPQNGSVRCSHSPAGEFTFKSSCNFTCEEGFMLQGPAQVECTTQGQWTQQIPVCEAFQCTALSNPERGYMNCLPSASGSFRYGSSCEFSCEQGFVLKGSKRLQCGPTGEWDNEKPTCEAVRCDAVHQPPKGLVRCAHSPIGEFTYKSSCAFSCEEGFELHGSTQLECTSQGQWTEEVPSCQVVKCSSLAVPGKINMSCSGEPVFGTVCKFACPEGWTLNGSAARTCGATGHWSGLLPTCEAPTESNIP

[4] = biological target: T1, human E-selectin, cell-surface expressed; remark: listed apart in the source
[5] = biological target: T3, recombinant histidine-tagged human …; remark: listed apart in the source

B1: optimized anti-E-selectin antibody 1444 (antibody, human IgG1, kappa, V domains shown)
VH: EVQLVESGGGLVQPGGSLRLSCAASGYAIRSAYMHWVRQAPGKGLEWVARIDPANGNTIYVDSVTGRFTISADNAKNSAYLQMNSLRAEDTAVYYCAMDLYSTSEYWGQGTLVTVSS
VL: DIQMTQSPSSLSASVGDRVTITCKTSQNIERYLNWYQQKPGKAPKLLIYAASSLQSGVPSRFSGSGSGTDFTLTISSLQPEDFATYFCLQDNAWPLTFGQGTKVEIKR
notes: effector-null human IgG1, kappa
HL-60 adhesion under physiological flow to human CHO-E-selectin cells, IC50 [1]: 4.41 nM
HL-60 adhesion under physiological flow to cells expressing cynomolgus monkey E-selectin, IC50 [2]: 4.34 nM
HL-60 cellular adhesion under physiological flow to purified soluble human E-selectin protein, IC50 [3]: 15.3 nM
adhesion of SCD patient blood cells under physiological flow to recombinant E-selectin, IC50 (one donor) [3]: 6.17 nM
adhesion of SCD patient blood cells under physiological flow to recombinant E-selectin, IC50 (other donor) [3]: 18.7 nM
Flow adhesion neutralization of HL-60 cells, CHO cells, human E-selectin, IC50 [4]: 4.25 to 4.56 nM
Neutralization of Human Neutrophils, CHO cells, human E-selectin, flow, IC50 [4]: 2.87 to 4.65 nM
Static adhesion neutralization of HL-60 cells, CHO cells, human E-selectin, IC50 [4]: 3.36 to 4.7 nM
Flow adhesion neutralization of HL-60 cells, soluble recombinant human E-selectin, IC50 [5]: 13.3 to 15.9 nM
Neutralization of SCD patient cells, soluble human recombinant protein, flow, IC50 (mean) [5]: 12.4 nM
